For six proteins, Km, kcat and kcat/Km results are on record in article PMC4334965, “Molecular Bases of Catalysis and ADP-Ribose Preference of Human Mn^2+-Dependent ADP-Ribose/CDP-Alcohol Diphosphatase and Conversion by Mutagenesis to a Preferential Cyclic ADP-Ribose Phosphohydrolase” (PLoS ONE, 2015).

What all share (assay type): biochemical, Homo sapiens
Common to all, as to conditions: 5 mM MnCl2, pH 7.5, 37°C

Substrate in data set [1]: C[N+](C)(C)CCOP(=O)(O)OP(=O)([O-])OC[C@H]1O[C@@H](n2ccc(N)nc2=O)[C@H](O)[C@@H]1O
As to the kind of experiment: colorimetric Pi assay coupled to alkaline phosphatase, saturation kinetics. The source says:
(§1) colorimetric Pi assay coupled to alkaline phosphatase, saturation kinetics on human ADPRibase-Mn

Substrate in data set [2]: N=c1c2ncn3c2ncn1[C@@H]1O[C@H](COP(=O)(O)OP(=O)(O)OC[C@H]2O[C@@H]3[C@H](O)[C@@H]2O)[C@@H](O)[C@H]1O
Put plainly: HPLC of N1-(5-phosphoribosyl)-AMP formed, saturation kinetics. The source says: HPLC of N1-(5-phosphoribosyl)-AMP formed, saturation kinetics on human ADPRibase-Mn

Substrate in data set [3]: Nc1ncnc2c1ncn2[C@@H]1O[C@H](CO)[C@H]2OP(=O)(O)O[C@H]21
As to the kind of experiment: colorimetric Pi assay coupled to alkaline phosphatase, saturation kinetics.
Text: as §1

B1: human ADPRibase-Mn (Homo sapiens; H111A) (protein)
chain: MDDKPNPEALSDSSERLFSFGVIADVQFADLEDGFNFQGTRRRYYRHSLLHLQGAIEDWNNESSMPCCVLQLGDIIDGYNAQYNASKKSLELVMDMFKRLKVPVHHTWGNAEFYNFSREYLTHSKLNTKFLEDQIVHHPETMPSEDYYAYHFVPFPKFRFILLDAYDLSVLGVDQSSPKYEQCMKILREHNPNTELNSPQGLSEPQFVQFNGGFSQEQLNWLNEVLTFSDTNQEKVVIVSHLPIYPDASDNVCLAWNYRDALAVIWSHECVVCFFAGHTHDGGYSEDPFGVYHVNLEGVIETAPDSQAFGTVHVYPDKMMLKGRGRVPDRIMNYKKERAFHC
notes: full length, 342 aa; expressed as GST fusion (pGEX-6P-3), GST cut off with PreScission protease, 11-aa N-terminal extension …
Broadly, the Km is the substrate concentration at which the rate is half of its maximum. Broadly, the kcat is the maximal rate divided by the concentration of active sites. What is called kcat/Km is the turnover number divided by the Michaelis constant. Consider B1, for which, in data set [1], the Michaelis constant (Km) is listed as 7500 ± 700 µM, the kcat was 2.2 ± 0.2 s⁻¹ and the specificity constant (kcat/Km) is 300 ± 30 M⁻¹ s⁻¹.

B2: human ADPRibase-Mn (Homo sapiens; C253A) (protein)
chain: MDDKPNPEALSDSSERLFSFGVIADVQFADLEDGFNFQGTRRRYYRHSLLHLQGAIEDWNNESSMPCCVLQLGDIIDGYNAQYNASKKSLELVMDMFKRLKVPVHHTWGNHEFYNFSREYLTHSKLNTKFLEDQIVHHPETMPSEDYYAYHFVPFPKFRFILLDAYDLSVLGVDQSSPKYEQCMKILREHNPNTELNSPQGLSEPQFVQFNGGFSQEQLNWLNEVLTFSDTNQEKVVIVSHLPIYPDASDNVALAWNYRDALAVIWSHECVVCFFAGHTHDGGYSEDPFGVYHVNLEGVIETAPDSQAFGTVHVYPDKMMLKGRGRVPDRIMNYKKERAFHC
notes: as for B1
As to B2, in data set [2], the Km was 200 ± 40 µM, the kcat was 8.9 ± 0.8 s⁻¹ and the kcat/Km was 44000 ± 9000 M⁻¹ s⁻¹.

B3: human ADPRibase-Mn (Homo sapiens) (protein)
chain: MDDKPNPEALSDSSERLFSFGVIADVQFADLEDGFNFQGTRRRYYRHSLLHLQGAIEDWNNESSMPCCVLQLGDIIDGYNAQYNASKKSLELVMDMFKRLKVPVHHTWGNHEFYNFSREYLTHSKLNTKFLEDQIVHHPETMPSEDYYAYHFVPFPKFRFILLDAYDLSVLGVDQSSPKYEQCMKILREHNPNTELNSPQGLSEPQFVQFNGGFSQEQLNWLNEVLTFSDTNQEKVVIVSHLPIYPDASDNVCLAWNYRDALAVIWSHECVVCFFAGHTHDGGYSEDPFGVYHVNLEGVIETAPDSQAFGTVHVYPDKMMLKGRGRVPDRIMNYKKERAFHC
notes: as for B1
B3: in data set [1], the Km is recorded as 350 ± 60 µM, the kcat was found to be 50 ± 4 s⁻¹ and the specificity constant (kcat/Km) was found to be 150000 ± 30000 M⁻¹ s⁻¹. Also, in data set [3], the Km is recorded as 2400 ± 300 µM, the turnover number (kcat) was 60 ± 13 s⁻¹ and the catalytic efficiency (kcat/Km) stood at 25000 ± 6000 M⁻¹ s⁻¹. Besides, in data set [2], the Km came to 780 ± 200 µM, the turnover number (kcat) came to 3.2 ± 0.2 s⁻¹ and the specificity constant (kcat/Km) stood at 4000 ± 1000 M⁻¹ s⁻¹.

B4: human ADPRibase-Mn (Homo sapiens; C253A/F37A/L196F) (protein)
chain: MDDKPNPEALSDSSERLFSFGVIADVQFADLEDGFNAQGTRRRYYRHSLLHLQGAIEDWNNESSMPCCVLQLGDIIDGYNAQYNASKKSLELVMDMFKRLKVPVHHTWGNHEFYNFSREYLTHSKLNTKFLEDQIVHHPETMPSEDYYAYHFVPFPKFRFILLDAYDLSVLGVDQSSPKYEQCMKILREHNPNTEFNSPQGLSEPQFVQFNGGFSQEQLNWLNEVLTFSDTNQEKVVIVSHLPIYPDASDNVALAWNYRDALAVIWSHECVVCFFAGHTHDGGYSEDPFGVYHVNLEGVIETAPDSQAFGTVHVYPDKMMLKGRGRVPDRIMNYKKERAFHC
notes: as for B1
Regarding B4, in data set [2], the Michaelis-Menten constant (Km) is listed as 460 ± 120 µM, the kcat was 16 ± 3 s⁻¹ and the specificity constant (kcat/Km) came out at 35500 ± 4300 M⁻¹ s⁻¹.

B5: human ADPRibase-Mn (Homo sapiens; Q27H) (protein)
chain: MDDKPNPEALSDSSERLFSFGVIADVHFADLEDGFNFQGTRRRYYRHSLLHLQGAIEDWNNESSMPCCVLQLGDIIDGYNAQYNASKKSLELVMDMFKRLKVPVHHTWGNHEFYNFSREYLTHSKLNTKFLEDQIVHHPETMPSEDYYAYHFVPFPKFRFILLDAYDLSVLGVDQSSPKYEQCMKILREHNPNTELNSPQGLSEPQFVQFNGGFSQEQLNWLNEVLTFSDTNQEKVVIVSHLPIYPDASDNVCLAWNYRDALAVIWSHECVVCFFAGHTHDGGYSEDPFGVYHVNLEGVIETAPDSQAFGTVHVYPDKMMLKGRGRVPDRIMNYKKERAFHC
notes: as for B1
B5: in data set [1], the Michaelis-Menten constant (Km) was determined as 2700 ± 200 µM, the kcat was 39 ± 12 s⁻¹ and the kcat/Km is 14000 ± 3000 M⁻¹ s⁻¹.

B6: human ADPRibase-Mn (Homo sapiens; F210A) (protein)
chain: MDDKPNPEALSDSSERLFSFGVIADVQFADLEDGFNFQGTRRRYYRHSLLHLQGAIEDWNNESSMPCCVLQLGDIIDGYNAQYNASKKSLELVMDMFKRLKVPVHHTWGNHEFYNFSREYLTHSKLNTKFLEDQIVHHPETMPSEDYYAYHFVPFPKFRFILLDAYDLSVLGVDQSSPKYEQCMKILREHNPNTELNSPQGLSEPQFVQANGGFSQEQLNWLNEVLTFSDTNQEKVVIVSHLPIYPDASDNVCLAWNYRDALAVIWSHECVVCFFAGHTHDGGYSEDPFGVYHVNLEGVIETAPDSQAFGTVHVYPDKMMLKGRGRVPDRIMNYKKERAFHC
notes: as for B1
For B6, in data set [1], the Km turned out to be 11000 ± 2600 µM, the kcat was 50 ± 12 s⁻¹ and the kcat/Km stood at 4000 ± 100 M⁻¹ s⁻¹.
